Reference: patent US20050226874A1 (CENTRE NATIONAL DE LA RECHERCHE SCIENTIFIQUE CNRS A …, published 2005)

Legend:
[1] = biological target: T1, biotinylated human recombinant CD4 (Repligen Inc.) (human, UniProt P01730 26-394, limits assumed, biotinylated (sites not given)); test: quantified Spot reactivity, membrane probed with biotinylated CD4
T1 construct: Probe of the Spot membranes, used at 1 µg/ml; also called biotinylated CD4; CD4 probe
Procedure: The antigenic reactivity of the peptides bound to the cellulose membrane was tested with biotinylated CD4 (1 μg/ml) under conditions that led to the production of a blue precipitate for the reactive spots as described in [Bès, 2001b].

[2] = biological target: T2, soluble human recombinant CD4 expressed in baculovirus (human, UniProt P01730 26-396, limits assumed); test: SPR (BIAcore), CD4 immobilised, Exp. 2
T2 construct: Coated on plates for the ELISA and covalently immobilised on the sensor for BIAcore; Only called soluble; also called soluble CD4; CD4 expressed in the baculovirus
Procedure: (§1) The kinetic parameters of the binding of CD4 to the paratope of the Fab fragments of the 13B8.2 antibody were determined by analysis of the surface plasmon resonance by means of a BIAcore analyzer (BIAcore AB, Uppsala, Sweden).

[3] = biological target: T2, soluble human recombinant CD4 expressed …; test: SPR (BIAcore), CD4 immobilised, Exp. 3
Procedure: as §1

[4] = biological target: T2, soluble human recombinant CD4 expressed …; test: SPR (BIAcore), CD4 immobilised, Exp. 1
Procedure: as §1

[5] = biological target: T3, membranous CD4 (wild human CD4 expressed on cells) (human, UniProt P01730 26-458); test: flow cytometry, T A2.01/CD4 cells, Fab at 10 µg/ml, fluorescein-labeled anti-kappa chain antibody
T3 construct: whole, on cells; also called T A2.01/CD4 cells; T AN2.01/CD4 cells
Procedure: (§2) The binding of the wild or mutant Fabs to the membranous CD4 was evaluated by flow cytometry.
(§3) In order to determine the binding of the fragments to the membranous CD4, T AN2.01 CD4+ cells were analyzed by indirect immunofluorescent labeling and flow cytometry (FIG. 4).

[6] = biological target: T3, membranous CD4 (wild human CD4 …); test: flow cytometry, T A2.01/CD4 cells, Fab at 1 µg/ml, fluorescein-labeled anti-kappa chain antibody
Procedure: as §2, §3

[7] = biological target: T2, soluble human recombinant CD4 expressed …; test: SPR (BIAcore), CD4 immobilised
Procedure: as §1

B1: hexapeptide 49GVIWRS54 of the CDR-H2 region of 13B8.2 (peptide)
peptide: GVIWRS
notes: also called peptide 1; control peptide 1
[1]
  binding result: binds

B2: alanine analogue of peptide 49GVIWRS54 with Gly49 replaced by Ala (peptide)
peptide: AVIWRS
notes: Spot peptide on cellulose membrane; also called AVIWRS
[1]
  binding result: binds

B3: alanine analogue of peptide 49GVIWRS54 with Ile51 replaced by Ala (peptide)
peptide: GVAWRS
notes: Spot peptide on cellulose membrane; also called GVAWRS
[1]
  binding result: binds

B4: hexapeptide 52WRSGIT57 of the CDR-H2 region of 13B8.2 (peptide)
peptide: WRSGIT
notes: Spot peptide on cellulose membrane; also called peptide 2
[1]
  binding result: binds

## WRSAIT (also called WRSAIT) [alanine analogue of peptide 52WRSGIT57 with Gly55 replaced by Ala (dotted bar G55)]
[1]
  binding result: binds

## WRSGAT (also called WRSGAT) [alanine analogue of peptide 52WRSGIT57 with Ile56 replaced by Ala (dotted bar I56)]
[1]
  binding result: binds

## WRAGIT (also called WRAGIT) [alanine analogue of peptide 52WRSGIT57 with Ser54 replaced by Ala (dotted bar S54)]
[1]
  binding result: binds

## WRSGIA (also called WRSGIA) [alanine analogue of peptide 52WRSGIT57 with Thr57 replaced by Ala (dotted bar T57)]
[1]
  binding result: binds

## ARSGIT (also called ARSGIT) [alanine analogue of peptide 52WRSGIT57 with Trp52 replaced by Ala (dotted bar W52)]
[1]
  binding result: binds

B5: wild recombinant chimeric Fab fragment of the 13B8.2 anti-CD4 antibody (Fab, V domains shown)
VH: QVQLKQSGPGLVQPSQSLSITCTVSGFSLTTFGVHWVRQSPGKGLEWLGVIWRSGITDYNVPFMSRLSITKDNSKSQVFFKLNSLQPDDTAIYYCAKNDPGTGFAYWGQGTLVTVSA
VL: DIQMTQSPASLSASVGETVTFTCRASENIYSYLAWYQQKQGKSPQLLVHDAKTLAEGVPSRFSGGGSGTQFSLKINTLQPEDFGTYYCQHHYGNPPTFGGGTKLEIK
notes: Chimeric Fab: murine V domains fused to human CH1-γ1 (Fdγ1) and human Cκ, expressed in baculovirus/Sf9 cells, purified on protein G; also called Fabwild 13B8.2; wild Fab
[2]
  Kd: 33.5 nM
  koff: 0.000161 s⁻¹
  kon: 4800 M⁻¹ s⁻¹
[3]
  Kd: 25.6 nM
  koff: 6.4e-05 s⁻¹
  kon: 2500 M⁻¹ s⁻¹
[4]
  Kd: 28.4 nM
  koff: 0.000108 s⁻¹
  kon: 3800 M⁻¹ s⁻¹
[5]
  percent of cells under the marker bar of the histogram: 84.8%
[6]
  percent of cells under the marker bar of the histogram: 44.7%

B6: control mutant Fab V61-H of the 13B8.2 antibody (Fab, V domains shown)
VH: QVQLKQSGPGLVQPSQSLSITCTVSGFSLTTFGVHWVRQSPGKGLEWLGVIWRSGITDYNAPFMSRLSITKDNSKSQVFFKLNSLQPDDTAIYYCAKNDPGTGFAYWGQGTLVTVSA
VL: DIQMTQSPASLSASVGETVTFTCRASENIYSYLAWYQQKQGKSPQLLVHDAKTLAEGVPSRFSGGGSGTQFSLKINTLQPEDFGTYYCQHHYGNPPTFGGGTKLEIK
notes: Chimeric Fab with human CH1-γ1 and Cκ; baculovirus/Sf9; Control position, not a Spot contributor residue; also called V61-Hcontrol
[2]
  Kd: 2.9 nM
  koff: 0.000324 s⁻¹
  kon: 112000 M⁻¹ s⁻¹
[4]
  Kd: 2 nM
  koff: 0.000172 s⁻¹
  kon: 86800 M⁻¹ s⁻¹
[6]
  percent of cells under the marker bar of the histogram: 62.9%

B7: mutant Fab C92-H of the 13B8.2 antibody (Fab, V domains shown)
VH: QVQLKQSGPGLVQPSQSLSITCTVSGFSLTTFGVHWVRQSPGKGLEWLGVIWRSGITDYNVPFMSRLSITKDNSKSQVFFKLNSLQPDDTAIYYAAKNDPGTGFAYWGQGTLVTVSA
VL: DIQMTQSPASLSASVGETVTFTCRASENIYSYLAWYQQKQGKSPQLLVHDAKTLAEGVPSRFSGGGSGTQFSLKINTLQPEDFGTYYCQHHYGNPPTFGGGTKLEIK
notes: Chimeric Fab with human CH1-γ1 and Cκ; baculovirus/Sf9
[7]
  Kd: 3.7 nM
  koff: 0.000358 s⁻¹
  kon: 96100 M⁻¹ s⁻¹
[6]
  percent of cells under the marker bar of the histogram: 76.5%

B8: mutant Fab F32-H of the 13B8.2 antibody (Fab, V domains shown)
VH: QVQLKQSGPGLVQPSQSLSITCTVSGFSLTTAGVHWVRQSPGKGLEWLGVIWRSGITDYNVPFMSRLSITKDNSKSQVFFKLNSLQPDDTAIYYCAKNDPGTGFAYWGQGTLVTVSA
VL: DIQMTQSPASLSASVGETVTFTCRASENIYSYLAWYQQKQGKSPQLLVHDAKTLAEGVPSRFSGGGSGTQFSLKINTLQPEDFGTYYCQHHYGNPPTFGGGTKLEIK
notes: Chimeric Fab with human CH1-γ1 and Cκ; baculovirus/Sf9; also called F32 mutant Fab
[2]
  Kd: 17 nM
  koff: 0.000246 s⁻¹
  kon: 14400 M⁻¹ s⁻¹
[3]
  Kd: 16.9 nM
  koff: 0.00025 s⁻¹
  kon: 14800 M⁻¹ s⁻¹
[4]
  Kd: 13.5 nM
  koff: 0.000248 s⁻¹
  kon: 18300 M⁻¹ s⁻¹
[5]
  percent of cells under the marker bar of the histogram: 82.4%

B9: mutant Fab F100K-H of the 13B8.2 antibody (Fab, V domains shown)
VH: QVQLKQSGPGLVQPSQSLSITCTVSGFSLTTFGVHWVRQSPGKGLEWLGVIWRSGITDYNVPFMSRLSITKDNSKSQVFFKLNSLQPDDTAIYYCAKNDPGTGAAYWGQGTLVTVSA
VL: DIQMTQSPASLSASVGETVTFTCRASENIYSYLAWYQQKQGKSPQLLVHDAKTLAEGVPSRFSGGGSGTQFSLKINTLQPEDFGTYYCQHHYGNPPTFGGGTKLEIK
notes: as for B7
[7]
  Kd: 845 nM
  koff: 0.000475 s⁻¹
  kon: 562 M⁻¹ s⁻¹

B10: mutant Fab H35-H of the 13B8.2 antibody (Fab, V domains shown)
VH: QVQLKQSGPGLVQPSQSLSITCTVSGFSLTTFGVAWVRQSPGKGLEWLGVIWRSGITDYNVPFMSRLSITKDNSKSQVFFKLNSLQPDDTAIYYCAKNDPGTGFAYWGQGTLVTVSA
VL: DIQMTQSPASLSASVGETVTFTCRASENIYSYLAWYQQKQGKSPQLLVHDAKTLAEGVPSRFSGGGSGTQFSLKINTLQPEDFGTYYCQHHYGNPPTFGGGTKLEIK
notes: as for B7
[7]
  Kd: 6280 nM
  koff: 0.00189 s⁻¹
  kon: 301 M⁻¹ s⁻¹
[5]
  percent of cells under the marker bar of the histogram: 33.6%

B11: mutant Fab R38-H of the 13B8.2 antibody (Fab, V domains shown)
VH: QVQLKQSGPGLVQPSQSLSITCTVSGFSLTTFGVHWVAQSPGKGLEWLGVIWRSGITDYNVPFMSRLSITKDNSKSQVFFKLNSLQPDDTAIYYCAKNDPGTGFAYWGQGTLVTVSA
VL: DIQMTQSPASLSASVGETVTFTCRASENIYSYLAWYQQKQGKSPQLLVHDAKTLAEGVPSRFSGGGSGTQFSLKINTLQPEDFGTYYCQHHYGNPPTFGGGTKLEIK
notes: as for B7
[7]
  Kd: 859 nM
  koff: 0.00014 s⁻¹
  kon: 163 M⁻¹ s⁻¹
[6]
  percent of cells under the marker bar of the histogram: 48%

B12: mutant Fab R53-H of the 13B8.2 antibody (Fab, V domains shown)
VH: QVQLKQSGPGLVQPSQSLSITCTVSGFSLTTFGVHWVRQSPGKGLEWLGVIWASGITDYNVPFMSRLSITKDNSKSQVFFKLNSLQPDDTAIYYCAKNDPGTGFAYWGQGTLVTVSA
VL: DIQMTQSPASLSASVGETVTFTCRASENIYSYLAWYQQKQGKSPQLLVHDAKTLAEGVPSRFSGGGSGTQFSLKINTLQPEDFGTYYCQHHYGNPPTFGGGTKLEIK
notes: as for B7
[7]
  Kd: 29200 nM
  koff: 0.0105 s⁻¹
  kon: 359 M⁻¹ s⁻¹
[5]
  percent of cells under the marker bar of the histogram: 43.2%

B13: mutant Fab W36-H of the 13B8.2 antibody (Fab, V domains shown)
VH: QVQLKQSGPGLVQPSQSLSITCTVSGFSLTTFGVHAVRQSPGKGLEWLGVIWRSGITDYNVPFMSRLSITKDNSKSQVFFKLNSLQPDDTAIYYCAKNDPGTGFAYWGQGTLVTVSA
VL: DIQMTQSPASLSASVGETVTFTCRASENIYSYLAWYQQKQGKSPQLLVHDAKTLAEGVPSRFSGGGSGTQFSLKINTLQPEDFGTYYCQHHYGNPPTFGGGTKLEIK
notes: as for B7
[7]
  Kd: 15.4 nM
  koff: 0.000271 s⁻¹
  kon: 17600 M⁻¹ s⁻¹
[5]
  percent of cells under the marker bar of the histogram: 65.5%

B14: mutant Fab W52-H of the 13B8.2 antibody (Fab, V domains shown)
VH: QVQLKQSGPGLVQPSQSLSITCTVSGFSLTTFGVHWVRQSPGKGLEWLGVIARSGITDYNVPFMSRLSITKDNSKSQVFFKLNSLQPDDTAIYYCAKNDPGTGFAYWGQGTLVTVSA
VL: DIQMTQSPASLSASVGETVTFTCRASENIYSYLAWYQQKQGKSPQLLVHDAKTLAEGVPSRFSGGGSGTQFSLKINTLQPEDFGTYYCQHHYGNPPTFGGGTKLEIK
notes: as for B7
[7]
  Kd: 3620 nM
  koff: 0.000859 s⁻¹
  kon: 237 M⁻¹ s⁻¹

B15: mutant Fab W103-H of the 13B8.2 antibody (Fab, V domains shown)
VH: QVQLKQSGPGLVQPSQSLSITCTVSGFSLTTFGVHWVRQSPGKGLEWLGVIWRSGITDYNVPFMSRLSITKDNSKSQVFFKLNSLQPDDTAIYYCAKNDPGTGFAYAGQGTLVTVSA
VL: DIQMTQSPASLSASVGETVTFTCRASENIYSYLAWYQQKQGKSPQLLVHDAKTLAEGVPSRFSGGGSGTQFSLKINTLQPEDFGTYYCQHHYGNPPTFGGGTKLEIK
notes: as for B7
[7]
  Kd: 4030 nM
  koff: 0.00112 s⁻¹
  kon: 278 M⁻¹ s⁻¹
[5]
  percent of cells under the marker bar of the histogram: 6.76%

B16: mutant Fab Y32-L of the 13B8.2 antibody (Fab, V domains shown)
VH: QVQLKQSGPGLVQPSQSLSITCTVSGFSLTTFGVHWVRQSPGKGLEWLGVIWRSGITDYNVPFMSRLSITKDNSKSQVFFKLNSLQPDDTAIYYCAKNDPGTGFAYWGQGTLVTVSA
VL: DIQMTQSPASLSASVGETVTFTCRASENIYSALAWYQQKQGKSPQLLVHDAKTLAEGVPSRFSGGGSGTQFSLKINTLQPEDFGTYYCQHHYGNPPTFGGGTKLEIK
notes: as for B7
[7]
  Kd: 8930 nM
  koff: 0.000585 s⁻¹
